Where a chain is given by its changes, count along the chain named. Names and notes keep the numbering of the source. Values joined by “and” are separate entries in the source; they are usually repeats but may differ in a detail not shown here. Equal entries are not always repeated. One block for each binder: values may come before it.
Tests used:
[1] = target: T1, human IL-21 (hIL-21 protein; recombinant human IL-21) (human, UniProt Q9HBE4 25-162, limits assumed); assay: cell-based or functional assay
[2] = target: hIL-21: human recombinant IL-21, corresponding to residues 30-162 and with an N-terminal Methionine as … (human, UniProt Q9HBE4 30-162); assay: HX-MS, 4 µM hIL-21 with 2.4 µM mAb
[3] = target: T1, human IL-21 (hIL-21 protein; …); assay: SPR (Biacore), average of experiments
[4] = target: T1, human IL-21 (hIL-21 protein; …); assay: SPR (Biacore), mAb captured by anti-Fc, hIL-21 as analyte; experiment no 1
[5] = target: T1, human IL-21 (hIL-21 protein; …); assay: SPR (Biacore), mAb captured by anti-Fc, hIL-21 as analyte; experiment no 2
[6] = target: T1, human IL-21 (hIL-21 protein; …); assay: SPR, Biacore T200, mAb captured by anti-human Fc, hIL-21 as analyte; exp no 1
Description: (§1) Anti-human Fc monoclonal from Biacore human Fc capture kit was immobilized onto flow cells of a CM4 sensor chip according to the manufacturer's instructions. […] The CM4 surface was regenerated after each injection cycle of analyte via two injections of 3M MgCl₂ at 50 μl/min.
(§2) In order to receive kinetic data, such as ka (association rate), kd (dissociation rate) and KD (equilibrium dissociation constant), data analysis was performed using the Biacore T200 evaluation software 1.0.

[7] = target: T1, human IL-21 (hIL-21 protein; …); assay: SPR, Biacore T200, mAb captured by anti-human Fc, hIL-21 as analyte; exp no 2
Description: as §1, §2

[8] = target: T1, human IL-21 (hIL-21 protein; …); assay: SPR, Biacore T200, mAb captured by anti-human Fc, hIL-21 as analyte; exp no 1; Exp no 1, first of the two exp-1 rows for 0005
[9] = target: T1, human IL-21 (hIL-21 protein; …); assay: cell-based or functional assay; remark: listed apart in the source
[10] = target: T1, human IL-21 (hIL-21 protein; …); assay: SPR, Biacore T200, average of two experiments
Description: as §1, §2

[11] = target: T1, human IL-21 (hIL-21 protein; …); assay: SPR (Biacore), mAb captured by anti-Fc, hIL-21 as analyte; experiment no 6

T1 sequence (Q9HBE4 25-162 limits assumed): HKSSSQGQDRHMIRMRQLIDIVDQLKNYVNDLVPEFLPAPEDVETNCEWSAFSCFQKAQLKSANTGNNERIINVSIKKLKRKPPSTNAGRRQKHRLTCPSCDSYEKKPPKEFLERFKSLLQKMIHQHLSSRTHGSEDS
hIL-21: human recombinant IL-21, corresponding to residues 30-162 and with an N-terminal Methionine as …, sequence (Q9HBE4 other isoform, or with tags, fused parts or gaps): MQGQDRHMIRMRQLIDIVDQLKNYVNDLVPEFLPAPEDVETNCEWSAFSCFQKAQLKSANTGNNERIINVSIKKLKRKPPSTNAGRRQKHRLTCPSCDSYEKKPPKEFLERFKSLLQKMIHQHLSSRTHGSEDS

B1: monoclonal antibody NNC 0114-0005 (antibody, human IgG1, kappa, V domains shown)
VH: QVQLVESGGGVVQPGRSLRLSCAASGFTFSSYGMHWVRQAPGKGLEWVAFIWYDGSDKYYADSVKGRFTISRDNSKNTLYLQMNSLRAEDTAVYYCARDGDSSDWYGDYYFGMDVWGQGTTVTVSS
VL: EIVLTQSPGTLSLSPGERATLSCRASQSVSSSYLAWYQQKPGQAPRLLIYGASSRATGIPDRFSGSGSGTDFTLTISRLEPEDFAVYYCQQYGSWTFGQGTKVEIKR
notes: also called NNC114-0005
- IC50 (nM), B cell proliferation, Donor 1 (0114-0000-0006) [1]: 0.82 nM
- IC50 (nM), B cell proliferation, Donor 2 (0114-0000-0006) [1]: 0.83 nM
- IC50 (nM), B cell proliferation, Donor 3 (0114-0000-0006) [1]: 0.57 nM
- IC50 (nM), B cell proliferation, Donor 4 (0114-0000-0006) [1]: 1.33 nM
- amides protected from exchange in region E93-V98 at 100 sec [2]: ~2 amides
- Kd [3]: ≤ 1 pM
- koff [3]: 1e-05 s⁻¹
- Kd [4]: 0.58 pM and 0.72 pM
- koff [4]: 9.5e-06 s⁻¹ and 1.1e-05 s⁻¹
- kon [4]: 1.6e+07 M⁻¹ s⁻¹ and 1.5e+07 M⁻¹ s⁻¹
- Kd [5]: 0.17 pM
- koff [5]: 1.1e-05 s⁻¹
- kon [5]: 6.6e+07 M⁻¹ s⁻¹
- Kd [6]: 0.58 pM and 0.72 pM
- koff [6]: 9.5e-06 s⁻¹ and 1.1e-05 s⁻¹
- kon [6]: 1.5e+07 M⁻¹ s⁻¹
- Kd [7]: 0.17 pM
- koff [7]: 1.1e-05 s⁻¹
- kon [7]: 6.6e+07 M⁻¹ s⁻¹
- kon [8]: 1.6e+07 M⁻¹ s⁻¹

B2: 0114-0000-0043, light chain R55K variant of mAb 0006 (NNC 0114-0005) (antibody, human IgG1, kappa, V domains shown)
VH: B1 VH
VL: EIVLTQSPGTLSLSPGERATLSCRASQSVSSSYLAWYQQKPGQAPRLLIYGASSKATGIPDRFSGSGSGTDFTLTISRLEPEDFAVYYCQQYGSWTFGQGTKVEIKR
- IC50 (nM), B cell proliferation, Donor 2 [1]: 0.3 nM
- IC50 (nM), B cell proliferation, Donor 4 [1]: 1.35 nM
- Bioactivity as % of RM (NCC0114-0000-0006), NK-92 bioassay [9]: 89.8%

B4: 0114-0000-0040, light chain S53T variant of mAb 0006 (NNC 0114-0005) (antibody, human IgG1, kappa, V domains shown)
VH: B1 VH
VL: B2 VL with S53T, K55R
- IC50 (nM), B cell proliferation, Donor 1 [1]: 0.93 nM
- IC50 (nM), B cell proliferation, Donor 3 [1]: 1 nM
- Bioactivity as % of RM (NCC0114-0000-0006), NK-92 bioassay [9]: 92.9%
- amides protected from exchange in region E93-V98 at 100 sec [2]: ~2 amides

B5: 0114-0000-0039, light chain S53A variant of mAb 0006 (NNC 0114-0005) (antibody, human IgG1, kappa, V domains shown)
VH: B1 VH
VL: B2 VL with S53A, K55R
- IC50 (nM), B cell proliferation, Donor 1 [1]: 0.78 nM
- IC50 (nM), B cell proliferation, Donor 3 [1]: 0.92 nM
- Bioactivity as % of RM (NCC0114-0000-0006), NK-92 bioassay [9]: 95.2%
- amides protected from exchange in region E93-V98 at 100 sec [2]: ~2 amides

B6: 0114-0000-0041, light chain S54A variant of mAb 0006 (NNC 0114-0005) (antibody, human IgG1, kappa, V domains shown)
VH: B1 VH
VL: B2 VL with S54A, K55R
- IC50 (nM), B cell proliferation, Donor 1 [1]: 1.15 nM
- IC50 (nM), B cell proliferation, Donor 3 [1]: 1.12 nM
- Bioactivity as % of RM (NCC0114-0000-0006), NK-92 bioassay [9]: 83.9%
- amides protected from exchange in region E93-V98 at 100 sec [2]: ~2 amides

Results, then the binder that gave them:

- IC50 (nM), B cell proliferation, Donor 1 [1]: 1.18 nM
- IC50 (nM), B cell proliferation, Donor 3 [1]: 1.21 nM
- Bioactivity as % of RM (NCC0114-0000-0006), NK-92 bioassay [9]: 89.2%
- amides protected from exchange in region E93-V98 at 100 sec [2]: ~2 amides
- Kd [10]: ≤ 1 pM
- koff [10]: 1e-05 s⁻¹
- Kd [6]: 0.43 pM and 0.42 pM
- koff [6]: 1.2e-05 s⁻¹ and 1.1e-05 s⁻¹
- kon [6]: 2.7e+07 M⁻¹ s⁻¹
- Kd [7]: 0.09 pM
- koff [7]: 6.8e-06 s⁻¹
- kon [7]: 7.5e+07 M⁻¹ s⁻¹
B3: NNCD-0114-0000-0038, Heavy-chain residue 31 Ser to Ala mutated form (H:S31A) of NNC 0114-0005 (antibody, human IgG1, kappa, V domains shown)
VH: B1 VH with S31A
VL: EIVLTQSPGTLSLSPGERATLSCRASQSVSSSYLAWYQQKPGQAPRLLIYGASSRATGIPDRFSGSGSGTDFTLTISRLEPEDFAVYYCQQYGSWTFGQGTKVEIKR

- IC50 (nM), B cell proliferation, Donor 1 [1]: 1.23 nM
- IC50 (nM), B cell proliferation, Donor 2 [1]: 0.86 nM
- IC50 (nM), B cell proliferation, Donor 3 [1]: 1.13 nM
- IC50 (nM), B cell proliferation, Donor 4 [1]: 0.91 nM
- Kd [3]: ≤ 1 pM
- koff [3]: 1e-05 s⁻¹
- Kd [11]: 0.12 pM and 0.18 pM and 0.28 pM
- koff [11]: 6.8e-06 s⁻¹ and 8.9e-06 s⁻¹ and 1.2e-05 s⁻¹
- kon [11]: 5.5e+07 M⁻¹ s⁻¹ and 4.9e+07 M⁻¹ s⁻¹ and 4.3e+07 M⁻¹ s⁻¹
B7: monoclonal antibody NNC 0114-0015 (antibody, V domains shown)
VH: B1 VH with S31T
VL: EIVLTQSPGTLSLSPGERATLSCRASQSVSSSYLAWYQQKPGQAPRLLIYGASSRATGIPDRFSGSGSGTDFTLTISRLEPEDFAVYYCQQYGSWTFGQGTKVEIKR
notes: also called NNC114-0015

- IC50 (nM), B cell proliferation, Donor 2 [1]: 0.8 nM
- IC50 (nM), B cell proliferation, Donor 4 [1]: 1.17 nM
- Bioactivity as % of RM (NCC0114-0000-0006), NK-92 bioassay [9]: 77.8%
- Kd [10]: ≤ 1 pM
- koff [10]: 1e-05 s⁻¹
- Kd [6]: ≤ 0.46 pM
- koff [6]: ≤ 1e-05 s⁻¹
- kon [6]: 2.2e+07 M⁻¹ s⁻¹
- Kd [7]: 0.24 pM
- koff [7]: 1.3e-05 s⁻¹
- kon [7]: 5.4e+07 M⁻¹ s⁻¹
B8: NNC-0114-0044, Light-chain residue 57 Thr to Ser mutated form (L:T57S) of NNC 0114-0005 (antibody, human IgG1, kappa, V domains shown)
VH: B1 VH
VL: B2 VL with K55R, T57S

— US20130323259A1 (Novo Nordisk, published 2013)
